Results: IntAct's records for PubMed 22396535

B1: Paired immunoglobulin-like type 2 receptor alpha (Homo sapiens), Q9UKJ1 (parent)
chain: MGRPLLLPLLPLLLPPAFLQPSGSTGSGPSYLYGVTQPKHLSASMGGSVEIPFSFYYPWELATAPDVRISWRRGHFHRQSFYSTRPPSIHKDYVNRLFLNWTEGQKSGFLRISNLQKQDQSVYFCRVELDTRSSGRQQWQSIEGTKLSITQAVTTTTQRPSSMTTTWRLSSTTTTTGLRVTQGKRRSDSWHISLETAVGVAVAVTVLGIMILGLICLLRWRRRKGQQRTKATTPAREPFQNTEEPYENIRNEGQNTDPKLNPKDDGIVYASLALSSSTSPRAPPSHRPLKSPQNETLYSVLKA
B2: Paired immunoglobulin-like type 2 receptor alpha (Homo sapiens), Q9UKJ1 (parent)
chain: B1 chain
partner: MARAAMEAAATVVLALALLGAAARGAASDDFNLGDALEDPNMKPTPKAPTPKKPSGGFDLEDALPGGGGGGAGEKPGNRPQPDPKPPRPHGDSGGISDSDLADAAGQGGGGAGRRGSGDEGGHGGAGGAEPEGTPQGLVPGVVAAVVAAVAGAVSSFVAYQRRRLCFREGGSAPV
B3: Paired immunoglobulin-like type 2 receptor alpha (Homo sapiens), Q9UKJ1 (parent)
chain: B1 chain
partner: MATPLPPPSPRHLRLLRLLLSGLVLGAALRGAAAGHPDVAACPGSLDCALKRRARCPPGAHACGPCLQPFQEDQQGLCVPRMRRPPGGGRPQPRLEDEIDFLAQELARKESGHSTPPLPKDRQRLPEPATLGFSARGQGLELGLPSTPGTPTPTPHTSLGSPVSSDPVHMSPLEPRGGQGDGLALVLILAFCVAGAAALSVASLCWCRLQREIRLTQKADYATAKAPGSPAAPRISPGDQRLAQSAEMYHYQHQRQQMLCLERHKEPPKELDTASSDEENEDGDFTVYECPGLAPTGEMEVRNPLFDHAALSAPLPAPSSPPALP

Variants of: B1
Conditions: with col12_human COLEC12, Q5KU26
Sequence of col12_human COLEC12, Q5KU26 (Q5KU26 whole entry): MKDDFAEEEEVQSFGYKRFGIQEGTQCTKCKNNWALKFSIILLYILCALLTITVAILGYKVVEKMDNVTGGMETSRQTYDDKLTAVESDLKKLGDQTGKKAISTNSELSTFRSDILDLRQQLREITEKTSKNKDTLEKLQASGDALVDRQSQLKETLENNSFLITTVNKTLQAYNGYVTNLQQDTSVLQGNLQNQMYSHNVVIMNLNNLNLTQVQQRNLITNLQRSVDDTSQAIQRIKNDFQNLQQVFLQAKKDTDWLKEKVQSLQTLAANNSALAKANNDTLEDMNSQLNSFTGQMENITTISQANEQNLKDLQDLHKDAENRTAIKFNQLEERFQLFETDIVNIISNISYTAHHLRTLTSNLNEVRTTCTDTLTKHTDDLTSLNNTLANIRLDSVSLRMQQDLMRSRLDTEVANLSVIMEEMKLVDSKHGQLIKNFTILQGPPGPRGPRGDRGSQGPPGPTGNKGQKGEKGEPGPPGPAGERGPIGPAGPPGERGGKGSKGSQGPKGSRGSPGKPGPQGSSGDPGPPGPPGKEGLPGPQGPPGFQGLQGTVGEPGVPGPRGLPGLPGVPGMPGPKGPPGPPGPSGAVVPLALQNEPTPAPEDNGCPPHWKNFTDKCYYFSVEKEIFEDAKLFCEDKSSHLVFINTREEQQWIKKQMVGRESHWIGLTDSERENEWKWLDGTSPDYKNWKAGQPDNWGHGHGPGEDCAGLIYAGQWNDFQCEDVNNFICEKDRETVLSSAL

Row | Variant | effect of a mutation on the interaction
1 | R126A | disrupting interaction strength

Variants of: B2
Conditions: with cd99_mouse Cd99, Q8VCN6

Row | Variant | effect of a mutation on the interaction
2 | R126A | disrupting interaction strength

Variants of: B3
Conditions: with npdc1_human NPDC1, Q9NQX5

Row | Variant | effect of a mutation on the interaction
3 | R126A | disrupting interaction strength
